Test [1] addresses T1, human sodium-dependent phosphate transporter 2B (NaPi2b) (human, UniProt O95436 1-690).
T1 construct: UniProt ID is given as 095436 [sic]; also called hNaPi2b; Hu NaPi2b
T1 sequence: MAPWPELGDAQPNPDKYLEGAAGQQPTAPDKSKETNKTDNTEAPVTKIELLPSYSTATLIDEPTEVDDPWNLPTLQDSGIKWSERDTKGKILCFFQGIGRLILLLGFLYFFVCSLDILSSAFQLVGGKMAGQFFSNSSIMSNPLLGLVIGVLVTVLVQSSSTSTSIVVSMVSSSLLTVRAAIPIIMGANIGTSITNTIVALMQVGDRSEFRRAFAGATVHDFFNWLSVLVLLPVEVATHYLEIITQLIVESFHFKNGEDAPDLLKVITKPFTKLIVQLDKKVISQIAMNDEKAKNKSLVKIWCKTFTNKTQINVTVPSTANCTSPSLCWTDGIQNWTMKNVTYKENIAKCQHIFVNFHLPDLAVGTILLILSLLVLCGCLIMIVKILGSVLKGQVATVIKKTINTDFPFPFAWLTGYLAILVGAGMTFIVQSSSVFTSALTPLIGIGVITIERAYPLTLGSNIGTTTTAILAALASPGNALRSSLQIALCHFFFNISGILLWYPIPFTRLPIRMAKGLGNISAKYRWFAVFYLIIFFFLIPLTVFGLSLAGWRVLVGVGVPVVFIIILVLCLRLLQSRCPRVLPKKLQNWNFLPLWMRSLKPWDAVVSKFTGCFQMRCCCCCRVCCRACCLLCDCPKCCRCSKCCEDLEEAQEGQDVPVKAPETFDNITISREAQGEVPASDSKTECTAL
Description: flow cytometry, TOV-21G cells (endogenous NaPi2b); apparent Kd. The method, then: (§1) Briefly, cells were seeded at 50,000 cells/well in conical-bottom 96-well plates and treated with test antibody for 24 hours at 4° C. to prevent internalization. […] Following incubation, cells were washed and stained with anti-Human IgG Fc AF647 conjugate (Jackson Immuno Research Labs, West Grove, PA; Cat. No. 109-605-098) at 4° C. for 30 min. Following incubation and washing, fluorescence was detected by flow cytometry on a BD LSRFortessa™ Cell Analyzer (BD Biosciences, Franklin Lake, NJ) with 1,000 minimum events collected per well. The AF647/APC-A GeoMean (fluorescence signal geometric mean, proportional to anti-Human AF647 binding) was calculated for the live cell population using FlowJo™ Version 10.8.1 (BD Biosciences, Franklin Lake, NJ) and plotted for each test antibody using GraphPad Prism Version 9 (GraphPad Software, San Diego, CA).
(§2) The ability of the humanized antibody variants v38591 and v29456 to bind to NaPi2b expressed on cells was assessed on endogenous NaPi2b-expressing tumor cell lines IGROV-1 (ovarian adenocarcinoma) and TOV-21G (ovarian carcinoma) by flow cytometry.
(§3) Cellular binding was performed according to methods described in Example 13.
On the technique in general: Flow cytometry measures light scatter and fluorescence of single cells or particles in a stream.

Test [2] has as its target T1, human sodium-dependent phosphate …. Kind of test: flow cytometry, HEK293-6e cells transfected with human NaPi2b; apparent Kd. The method, then:
The binding cross-reactivity of humanized antibody variant v38591 to human NaPi2b, NaPi2a, and NaPi2c was assessed by flow cytometry using HEK293-6e transfected cells.
Following transfection, cells were seeded at 50,000 cells/well in conical-bottom 96-well plates and treated with test antibody for 24 hours at 4° C. to prevent internalization. Following incubation, cells were washed and stained with anti-Human IgG Fc AF647 conjugate (Jackson Immuno Research Labs, West Grove, PA; Cat. No. 109-605-098) or anti-Rabbit IgG F(ab″)2 AF647 conjugate (Jackson Immuno Research Labs, West Grove, PA; Cat. No. 111-605-047). Following incubation and washing, fluorescence was detected by flow cytometry on a BD LSRFortessa™ Cell Analyzer (BD Biosciences, Franklin Lake, NJ) with 1,000 minimum events collected per well. The AF647/APC-A GeoMean (fluorescence signal geometric mean, proportional to anti-Human AF647 binding) was calculated for the live cell population using FlowJo™ Version 10.8.1 (BD Biosciences, Franklin Lake, NJ) and plotted for each test antibody using GraphPad Prism Version 9 (GraphPad Software, San Diego, CA).

The next test concerns the target T2, FcgR1A (human, UniProt P12314 16-374).
T2 construct: whole, on cells
Description: Membrane Proteome Array screen, flow cytometry on HEK293T cells each expressing one of over 6000 human membrane proteins.

The target of test [3] is T1, human sodium-dependent phosphate …. Kind of test: flow cytometry on TOV-21G cells (endogenous NaPi2b), 24 h at 4 C, anti-human IgG Fc AF647 detection. On the procedure:
as §1, §2, §3

Test [4] shares this target. Kind of test: flow cytometry on IGROV-1 cells (endogenous NaPi2b), 24 h at 4 C, anti-human IgG Fc AF647 detection. The method, then: as §1, §2, §3
The target is the same in test [5]. Kind of test: flow cytometry, IGROV-1 cells (endogenous NaPi2b); apparent Kd. The method, then: as §1, §2, §3
The target in a further test is T3, mouse NaPi2b (mouse, UniProt Q9DBP0 1-697).
T3 construct: Transiently expressed on HEK293-6e cells; also called Ms NaPi2b
T3 sequence: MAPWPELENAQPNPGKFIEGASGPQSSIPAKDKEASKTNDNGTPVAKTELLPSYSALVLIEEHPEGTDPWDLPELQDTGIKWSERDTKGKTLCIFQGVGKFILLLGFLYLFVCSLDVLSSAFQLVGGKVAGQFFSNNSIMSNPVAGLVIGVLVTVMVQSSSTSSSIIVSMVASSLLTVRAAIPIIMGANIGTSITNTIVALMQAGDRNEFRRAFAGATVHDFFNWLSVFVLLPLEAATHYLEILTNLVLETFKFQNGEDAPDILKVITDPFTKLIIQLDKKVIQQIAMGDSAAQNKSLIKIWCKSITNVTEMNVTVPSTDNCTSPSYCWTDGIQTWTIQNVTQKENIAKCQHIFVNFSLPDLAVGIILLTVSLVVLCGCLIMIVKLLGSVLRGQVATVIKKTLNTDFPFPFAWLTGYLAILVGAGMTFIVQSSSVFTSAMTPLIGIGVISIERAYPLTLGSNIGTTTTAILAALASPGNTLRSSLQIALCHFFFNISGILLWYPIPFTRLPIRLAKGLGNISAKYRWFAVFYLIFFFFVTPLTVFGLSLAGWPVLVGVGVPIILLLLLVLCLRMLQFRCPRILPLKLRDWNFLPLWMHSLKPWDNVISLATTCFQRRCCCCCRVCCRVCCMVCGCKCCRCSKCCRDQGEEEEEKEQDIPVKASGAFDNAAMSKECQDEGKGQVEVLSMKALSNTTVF
Description: flow cytometry on HEK293-6e cells transiently expressing mouse NaPi2b, 4 C, anti-human IgG Fc AF647 detection.

The target in another test is T4, cynomolgus monkey NaPi2b (cynomolgus monkey, UniProt O95436 1-690 (human entry)).
T4 construct: Transiently expressed on HEK293-6e cells; also called Cyno NaPi2b
T4 chain: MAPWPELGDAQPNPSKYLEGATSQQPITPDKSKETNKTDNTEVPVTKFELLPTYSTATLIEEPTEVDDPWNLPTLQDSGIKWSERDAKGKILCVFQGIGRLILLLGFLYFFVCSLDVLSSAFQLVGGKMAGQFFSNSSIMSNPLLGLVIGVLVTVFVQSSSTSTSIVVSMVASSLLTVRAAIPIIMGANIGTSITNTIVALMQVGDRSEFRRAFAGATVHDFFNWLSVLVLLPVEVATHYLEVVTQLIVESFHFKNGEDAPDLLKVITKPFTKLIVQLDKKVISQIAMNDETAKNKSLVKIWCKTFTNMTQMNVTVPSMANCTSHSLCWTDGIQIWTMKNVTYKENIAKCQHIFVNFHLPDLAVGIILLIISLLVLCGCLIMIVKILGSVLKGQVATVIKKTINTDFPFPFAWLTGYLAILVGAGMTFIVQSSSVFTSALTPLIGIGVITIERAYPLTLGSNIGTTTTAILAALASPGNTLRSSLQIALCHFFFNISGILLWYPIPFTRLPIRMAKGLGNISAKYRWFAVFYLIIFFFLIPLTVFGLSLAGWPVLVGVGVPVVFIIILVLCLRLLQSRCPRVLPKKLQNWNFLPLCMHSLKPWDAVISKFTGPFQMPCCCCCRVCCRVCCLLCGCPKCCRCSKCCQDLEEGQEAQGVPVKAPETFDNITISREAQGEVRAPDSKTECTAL
Description: flow cytometry on HEK293-6e cells transiently expressing cynomolgus NaPi2b, 4 C, anti-human IgG Fc AF647 detection.

T2 sequence (P12314 16-374): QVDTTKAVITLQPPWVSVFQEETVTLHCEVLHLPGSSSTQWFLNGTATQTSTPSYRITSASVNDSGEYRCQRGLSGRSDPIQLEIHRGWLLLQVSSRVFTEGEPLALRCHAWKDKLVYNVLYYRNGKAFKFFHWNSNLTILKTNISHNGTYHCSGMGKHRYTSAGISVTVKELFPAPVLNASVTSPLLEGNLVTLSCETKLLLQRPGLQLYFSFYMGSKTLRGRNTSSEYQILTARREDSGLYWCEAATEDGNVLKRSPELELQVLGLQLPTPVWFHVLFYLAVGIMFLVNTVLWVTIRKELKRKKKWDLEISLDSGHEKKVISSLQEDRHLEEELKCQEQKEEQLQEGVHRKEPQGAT
Description for FcgR1A: Briefly, the study consisted of three phases: phase (1) determination of assay screening conditions, phase (2) membrane proteome array (library) screen and phase (3) protein target validation. […] In phase (3), each protein target hit from the screen stage (potential off-target interactions) was assessed in titration experiment using flow cytometry.

B1: v38591 humanized anti-NaPi2b antibody (antibody, human IgG1, kappa)
heavy: not shown
light: DVQMTQSPSSLSASVGDRVTITCRASQDVYSYLNWYQQKPGKAVKLLIYYTSRLQSGVPSRFSGSGSGTDYTLTISSLQPEDFATYYCQQYNIFPWTFGQGTKLEIKRTVAAPSVFIFPPSDEQLKSGTASVVCLLNNFYPREAKVQWKVDNALQSGNSQESVTEQDSKDSTYSLSSTLTLSKADYEKHKVYACEVTHQGLSSPVTKSFNRGEC
notes: also called humanized v38591 anti-NaPi2b (SLC34A2) variant
Turning to B1, the figures for the Kd in test [1], in test [2] and in test [5] were 0.74 nM, 1.68 nM and 1.39 nM, respectively. The binding result in the test with FcgR1A is on record as “binds”. The entries for the “EC50 (read off the curve)” value in test [3] and in test [4] were about 0.7 nM and about 1 nM, respectively.

B2: v22277, palivizumab (anti-RSV) negative control (antibody, human IgG1, kappa)
heavy 1: GQVTLRESGPALVKPTQTLTLTCTFSGFSLSTSGMSVGWIRQPPGKALEWLADIWWDDKKDYNPSLKSRLTISKDTSKNQVVLKVTNMDPADTATYYCARSMITNWYFDVWGAGTTVTVSSASTKGPSVFPLAPSSKSTSGGTAALGCLVKDYFPEPVTVSWNSGALTSGVHTFPAVLQSSGLYSLSSVVTVPSSSLGTQTYICNVNHKPSNTKVDKKVEPKSCDKTHTCPPCPAPELLGGPSVFLFPPKPKDTLMISRTPEVTCVVVDVSHEDPEVKFNWYVDGVEVHNAKTKPREEQYNSTYRVVSVLTVLHQDWLNGKEYKCKVSNKALPAPIEKTISKAKGQPREPQVYVYPPSRDELTKNQVSLTCLVKGFYPSDIAVEWESNGQPENNYKTTPPVLDSDGSFALVSKLTVDKSRWQQGNVFSCSVMHEALHNHYTQKSLSLSPG
heavy 2: not shown
light: GDIQMTQSPSTLSASVGDRVTITCKSQLSVGYMHWYQQKPGKAPKLLIYDTSKLASGVPSRFSGSGSGTEFTLTISSLQPDDFATYYCFQGSGYPFTFGGGTKLEIKRTVAAPSVFIFPPSDEQLKSGTASVVCLLNNFYPREAKVQWKVDNALQSGNSQESVTEQDSKDSTYSLSSTLTLSKADYEKHKVYACEVTHQGLSSPVTKSFNRGEC
notes: Heterodimeric Fc form of palivizumab (clones CL_#11009, CL_#11010, CL_#16635); also called neg control
Consider B2, for which the binding result in the test with mouse NaPi2b and in the test with cynomolgus monkey NaPi2b was “no binding (tested: about 200 nM)” throughout.

(Values after patent US20250277030A1 (Zymeworks, published 2025).)
